The source of these data is article PMC3323580.

As usually defined, the Kd is the constant that tells how readily two partners part at equilibrium. A high value points to a looser complex.

Common to all, as to test: SPR; C3b (1620 RU), C4b (1518 RU) and C1q (2125 RU) amine-coupled on three flow cells of one CM5 chip; CR1 fragments flowed at 30 µl/min, Biacore T100, 25°C, HBS-EP pH 7.4 (10 mM Hepes, 150 mM saline, 3 mM EDTA, 0.05% polysorbate 20); steady-state fit, one-to-one model; duplicates
On the technique in general: In SPR one partner is held on a chip, and binding of the other changes the refractive index at the surface.

In assay [1] the target is C3b, complement-activation fragment of C3.
In assay [2] the target is C4b, complement-activation fragment of C4.
The target in assay [3] is C1q, classical complement pathway protein (UniProt P02745).
Sequence of C1q, classical complement pathway protein (P02745 23-245, chain 1 of 3): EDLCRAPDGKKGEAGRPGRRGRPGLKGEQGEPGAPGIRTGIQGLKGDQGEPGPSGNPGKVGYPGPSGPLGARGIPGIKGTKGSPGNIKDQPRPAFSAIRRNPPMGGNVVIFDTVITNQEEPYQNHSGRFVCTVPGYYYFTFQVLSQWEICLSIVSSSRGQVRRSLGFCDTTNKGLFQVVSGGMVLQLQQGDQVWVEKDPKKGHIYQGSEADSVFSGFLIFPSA
Sequence of C1q, classical complement pathway protein (P02746 28-253, chain 2 of 3, further chain): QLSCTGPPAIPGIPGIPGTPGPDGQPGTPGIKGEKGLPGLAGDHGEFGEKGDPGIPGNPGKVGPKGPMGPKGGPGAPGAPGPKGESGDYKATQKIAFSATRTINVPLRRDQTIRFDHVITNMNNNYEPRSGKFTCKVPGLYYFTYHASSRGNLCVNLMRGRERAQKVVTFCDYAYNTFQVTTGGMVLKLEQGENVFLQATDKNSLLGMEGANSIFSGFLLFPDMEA
Sequence of C1q, classical complement pathway protein (P02747 29-245, chain 3 of 3, further chain): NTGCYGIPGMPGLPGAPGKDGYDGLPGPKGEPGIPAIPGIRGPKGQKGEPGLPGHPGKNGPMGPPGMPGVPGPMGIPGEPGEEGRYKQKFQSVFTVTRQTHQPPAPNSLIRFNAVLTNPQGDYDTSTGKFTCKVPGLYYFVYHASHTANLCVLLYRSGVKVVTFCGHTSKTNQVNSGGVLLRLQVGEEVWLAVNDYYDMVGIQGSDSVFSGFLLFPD

“soluble CR1 (sCR1), full-length ectodomain of complement receptor-type 1 (from UniProt P17927 42-1971)”: the Kd is 0.53 µM in assay [1] and 0.91 µM in assay [2].
For the substance “CR1 15–25(ER), complement receptor-type 1 CCPs 15–25, Glu1590/Arg1601 variant (domain or fragment)”, the Kd turned out to be 5.7 µM in assay [3], 1.09 µM in assay [1] and 5.3 µM in assay [2].
The matching figures for “CR1 15–25(EG), complement receptor-type 1 CCPs 15–25, Glu1590/Gly1601 variant (domain or fragment)”: 5.1 µM, 0.8 µM and 5 µM.
The matching figures for “CR1 15–25(KG), complement receptor-type 1 CCPs 15–25, Lys1590/Gly1601 variant (domain or fragment)”: 5.5 µM, 1.05 µM and 5.2 µM.
The matching figures for “CR1 15–17 (site 2), complement receptor-type 1 CCPs 15–17 (domain or fragment)”: 0.82 µM, 1.06 µM and 3.2 µM.
Turning to “CR1 15–25(KR), complement receptor-type 1 CCPs 15–25, Lys1590/Arg1601 variant (domain or fragment)”, the Kd in assay [3] was 5.7 µM; in assay [1] it was 0.99 µM; in assay [2], 5.1 µM.
The matching figures for “CR1 1–3 (site 1), complement receptor-type 1 CCPs 1–3 (domain or fragment)”: 30.9 µM, 38 µM and 11.2 µM.
